Several values for one entry are separate records, joined by “and”; a condition that tells them apart may be missing. Equal values may be shown once.
Legend:
[1] = test system: preterm infants born before week 32 of gestational age; test: Growth velocity (body weight) in phase II crossover studies BVT.BSSL-020/-021; format: in vivo, human; settings: for Growth velocity, LS Mean / Growth velocity, LS Mean Difference (rhBSSL − Placebo) / Growth velocity, Maximum / Growth velocity, Mean (SD) / Growth velocity, Median / Growth velocity, Minimum: 7 days
Procedure: Patients were randomized to infant formula/pasteurized breast milk supplemented with rhBSSL at a final concentration of 0.15 g/L, or to infant formula/pasteurized breast milk “supplemented” with sterile water for injection (as placebo) for the first 7 days. After a washout period of 2 days, the patient was “crossed over” to the other treatment regimen during a second 7-day treatment period. Collection of feces samples for CFA assessment were performed during the last 3 days (72 hours) of each treatment period.
The patient's weight in grams was recorded each day using a scale with an accuracy of at least +/−5 grams and entered on the CRF. To the extent possible, body weight was measured at approximately the same time each day.
• Growth velocity (g/kg/day): Growth velocity was defined as, for the first period, (the weight at the last assessment in the first period minus the weight at Day 1) divided by [the weight at Day 1 and (the day of the last assessment in the first period minus 1)], and for the second period, (the weight at the last assessment in the second period minus the weight at Day 10) divided by [the weight at Day 10 and (the day of the last assessment in the second period minus 10)]. The Secondary Efficacy Variables were: • CFA measured in food and feces samples collected between the tracer markers during the final 3 days (72 hours) of each treatment period. • CFA was calculated as [Fat (g/period) in food—Fat (g/period) in stool]/[Fat (g/period) in food)]*100. • Fat in food was calculated as ([Food (mL)−Vomit (mL)]*[Fat Content in Food (g/100 mL)]/100. This formula was based on the following assumptions: (a) fat content in vomit is the same as the fat content in food; (b) density of vomit is the same as density of food. • Fat content of food (formula or pasteurized breast milk) was determined using the same method as for the stool analysis and was performed by the same lab. Food (mL) and Vomit (mL) were calculated as the total amount of food or vomit recorded on or after the first tracer ingestion and prior to the second tracer ingestion. Vomit was recorded in grams on the CRF. Therefore, Vomit (mL) was calculated as Vomit (g)/Density. • There was one difference in the calculation of fat (g/period) in stool and fat content in food (g/100 mL) between the two studies. That difference relates to different contents of fatty acids in milk and formula, as described below: […]
The primary efficacy outcome, growth velocity, was analyzed by an analysis of variance (ANOVA) with treatment, regimen (pasteurized breast milk or infant formula), period, sequence, and patient nested within regimen and sequence as factors. All main effects were tested against the residual mean square from the ANOVA model.

[2] = test system: preterm infants born before week 32 of gestational age; test: Treatment-emergent adverse events, studies BVT.BSSL-020/-021
Source text: The adverse event (AE) reporting period in each study began upon administration of the first dose (Day 1) of investigational medication and ended at the Follow-up Visit (1 week±3 days after the last dose of study drug intake). All AEs that occurred in a patient during the adverse event reporting period were to be reported, whether or not the event was considered medication/product related. In addition, any known untoward event that occurred subsequent to the AE reporting period that the investigator assessed as possibly, probably, or definitely related to the investigational product were also to be reported as an AE.
MedDRA dictionary version 10.0 was used to classify all AEs reported during either study by system organ class (SOC) and preferred term (PT). All summary tables included counts of patients with treatment-emergent adverse events (TEAEs). The assessment of TEAEs was made in each individual study. […] All TEAEs, treatment related TEAEs (definite, probable, and possible), SAEs, and TEAEs leading to withdrawal of study drug were summarized by MedDRA SOC, PT, and treatment. Both the incidence (proportion of patients) and number of each TEAE were summarized. Additionally, TEAEs were summarized by maximum severity (mild, moderate, or severe). An overall summary of TEAEs was presented by treatment sequence and total and presented the number (%) of patients with TEAEs for each treatment sequence allocated to (1) BSSL only; (2) Placebo only; (3) Both BSSL and placebo; and (4) Neither Treatment.

[3] = BVT.BSSL-020 (infant formula), FAS, 0.15 g/L
[4] = BVT.BSSL-020 (infant formula), PP, 0.15 g/L
[5] = BVT.BSSL-021 (pasteurized breast milk), FAS, 0.15 g/L
[6] = BVT.BSSL-021 (pasteurized breast milk), PP, 0.15 g/L
[7] = combined studies 020+021, FAS, 0.15 g/L in feed
[8] = combined studies 020+021, PP, 0.15 g/L in feed
[9] = Safety Analysis Set, rhBSSL N = 61
[10] = TEAE, Safety Analysis Set, rhBSSL N = 61

B1: rhBSSL: recombinant human bile-salt-stimulated lipase, SEQ ID. NO. 1, expressed from recombinant CHO cells; used in both clinical trials (protein, listed as Homo sapiens)
chain: AKLGAVYTEGGFVEGVNKKLGLLGDSVDIFKGIPFAAPTKALENPQPHPGWQGTLKAKNFKKRCLQATITQDSTYGDEDCLYLNIWVPQGRKQVSRDLPVMIWIYGGAFLMGSGHGANFLNNYLYDGEEIATRGNVIVVTFNYRVGPLGFLSTGDANLPGNYGLRDQHMAIAWVKRNIAAFGGDPNNITLFGESAGGASVSLQTLSPYNKGLIRRAISQSGVALSPWVIQKNPLFWAKKVAEKVGCPVGDAARMAQCLKVTDPRALTLAYKVPLAGLEYPMLHYVGFVPVIDGDFIPADPINLYANAADIDYIAGTNNMDGHIFASIDMPAINKGNKKVTEEDFYKLVSEFTITKGLRGAKTTFDVYTESWAQDPSQENKKKTVVDFETDVLFLVPTEIALAQHRANAKSAKTYAYLFSHPSRMPVYPKWVGADHADDIQYVFGKPFATPTGYRPQDRTVSKAMIAYWTNFAKTGDPNMGDSAVPTHWEPYTTENSGYLEITKKMGSSSMKRSLRTNFLRYWTLTYLALPTVTDQEATPVPPTGDSEATPVPPTGDSETAPVPPTGDSGAPPVPPTGDSGAPPVPPTGDSGAPPVPPTGDSGAPPVPPTGDSGAPPVPPTGDSGAPPVPPTGDSGAPPVPPTGDAGPPPVPPTGDSGAPPVPPTGDSGAPPVTPTGDSETAPVPPTGDSGAPPVPPTGDSEAAPVPPTDDSKEAQMPAVIRF
In the case of B1, the “Growth velocity, LS Mean” value [1, 3] is reported as 18.05 g/kg/day, the “Growth velocity, LS Mean Difference (rhBSSL − Placebo)” value (“Growth velocity, LS Mean Difference” below) [1, 3] is reported as 3.74 g/kg/day and the “Growth velocity, Maximum” value [1, 3] is reported as 25.5 g/kg/day. For the same molecule, the “Growth velocity, Mean (SD)” value [1, 3] was 18.06 g/kg/day and 18.06 (3.964) g/kg/day, the “Growth velocity, Median” value [1, 3] was 18.39 g/kg/day and the “Growth velocity, Minimum” value [1, 3] was 9.2 g/kg/day. The “Growth velocity, LS Mean” value [1, 4] was 17.75 g/kg/day, the “Growth velocity, LS Mean Difference” value [1, 4] was 2.30 g/kg/day and the “Growth velocity, Maximum” value [1, 4] was 24.0 g/kg/day. For the same molecule, the “Growth velocity, Mean (SD)” value [1, 4] was 17.79 (4.013) g/kg/day, the “Growth velocity, Median” value [1, 4] was 17.98 g/kg/day and the “Growth velocity, Minimum” value [1, 4] was 9.2 g/kg/day. The “Growth velocity, LS Mean” value [1, 5] was 15.58 g/kg/day, the “Growth velocity, LS Mean Difference” value [1, 5] was 1.95 g/kg/day and the “Growth velocity, Maximum” value [1, 5] was 26.5 g/kg/day. For the same molecule, the “Growth velocity, Mean (SD)” value [1, 5] was 15.54 g/kg/day and 15.54 (4.880) g/kg/day, the “Growth velocity, Median” value [1, 5] was 15.95 g/kg/day and the “Growth velocity, Minimum” value [1, 5] was 7.5 g/kg/day. The “Growth velocity, LS Mean” value [1, 6] was 16.47 g/kg/day, the “Growth velocity, LS Mean Difference” value [1, 6] was 1.71 g/kg/day and the “Growth velocity, Maximum” value [1, 6] was 26.5 g/kg/day. The “Growth velocity, Mean (SD)” value [1, 6] was 16.16 (4.856) g/kg/day, the “Growth velocity, Median” value [1, 6] was 16.80 g/kg/day and the “Growth velocity, Minimum” value [1, 6] was 8.3 g/kg/day. For the same molecule, the “Growth velocity, LS Mean” value [1, 7] was 16.86 g/kg/day, the “Growth velocity, LS Mean Difference” value [1, 7] was 2.93 g/kg/day and the “Growth velocity, Maximum” value [1, 7] was 26.5 g/kg/day. For the same molecule, the “Growth velocity, Mean (SD)” value [1, 7] was 16.92 (4.540) g/kg/day, the “Growth velocity, Median” value [1, 7] was 16.84 g/kg/day and the “Growth velocity, Minimum” value [1, 7] was 7.5 g/kg/day. The “Growth velocity, LS Mean” value [1, 8] was 17.15 g/kg/day, the “Growth velocity, LS Mean Difference” value [1, 8] was 2.08 g/kg/day and the “Growth velocity, Maximum” value [1, 8] was 26.5 g/kg/day. The “Growth velocity, Mean (SD)” value [1, 8] was 17.08 (4.424) g/kg/day, the “Growth velocity, Median” value [1, 8] was 16.84 g/kg/day and the “Growth velocity, Minimum” value [1, 8] was 8.3 g/kg/day. The “Relative increase of growth velocity compared to the LS mean for placebo” value ([1]; combined studies, PP) was 13.8%, the “Relative increase of growth velocity compared to the LS mean for placebo” value ([1]; formula-fed infants (BVT.BSSL-020), PP) was 14.9% and the “Patients who died, n (%) of Patients” value [2, 9] was 0. The “Patients with any TEAE, n (%) of Patients” value [2, 9] was 29 (47.5%), the “Patients with any serious TEAE, n (%) of Patients” value [2, 9] was 0 and the “Patients with any severe TEAE, n (%) of Patients” value [2, 9] was 1 (1.6%). The “Anemia neonatal, n (%) of Patients” value [2, 10] was 2 (3.3%), the “Anemia, n (%) of Patients” value [2, 10] was 3 (4.9%) and the “Bradycardia, n (%) of Patients” value [2, 10] was 1 (1.6%). The “Cardiac murmur, n (%) of Patients” value [2, 10] was 4 (6.6%), the “Dermatitis diaper, n (%) of Patients” value [2, 10] was 13 (21.3%) and the “Hypokalemia, n (%) of Patients” value [2, 10] was 3 (4.9%). For the same molecule, the “Thrombocythemia, n (%) of Patients” value [2, 10] was 0 and the “Tolerability when added to infant formula or pasteurized breast milk” value ([2]; preterm infants, combined analysis) was “well tolerated”.
